Results: article PMC6264893 (Nature, 2018)

Molecular target: His6-tagged 13C,15N-H1 (human, UniProt P07305 1-194)
Test: NMR titration

Sequence of His6-tagged 13C,15N-H1 (P07305 whole entry): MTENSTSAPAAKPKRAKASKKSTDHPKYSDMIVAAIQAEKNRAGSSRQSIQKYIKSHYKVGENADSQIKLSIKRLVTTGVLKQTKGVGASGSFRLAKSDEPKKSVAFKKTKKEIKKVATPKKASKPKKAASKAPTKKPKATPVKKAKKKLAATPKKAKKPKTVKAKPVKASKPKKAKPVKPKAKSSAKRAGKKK

stoichiometry N: 1
B1: prothymosin α (unlabeled, wildtype) (natural protein, human, UniProt P06454 1-111, looked up)
chain: MSDAAVDTSSEITTKDLKEKKEVVEEAENGRDAPANGNAENEENGEQEADNEVDEEEEEGGEEEEEEEEGDGEEEDGDEDEEAESATGKRAAEDDEDDDVDTKKQKTDEDD
